Experimental data reported in US20240409638A1 (AVACTA LIFE SCIENCES, published 2024).
Each block holds one binder with its values, some of them ahead of it.

Assays:
[1] = target: T1, PD-L1 on cells (NCI-H441 cells; aAPC PD-L1/CHO-K1 cells, Promega) (human, UniProt Q9NZQ7 19-290); experiment: cell-based or functional assay
[2] = target: T2, human PD-L1-Fc (R&D Systems) (human, UniProt Q9NZQ7 19-239); experiment: SPR (Biacore 8K): human PD-L1-Fc amine-coupled on a CM5 chip, AFFIMER as analyte, 1:1 Langmuir fit
T2 construct: Bought reagent; also called huPD-L1-Fc; huPD-L1; not shown: Fc part of the bought fusion

[3] = target: T3, human serum albumin (HSA) (human, UniProt P02768 25-609); experiment: HSA binding ELISA: HSA coated, bound AFFIMER detected with biotinylated anti-cystatin A antibody and streptavidin-HRP
T3 construct: The assays used bought HSA (Sigma #A37812 in the SPR work); also called HuSA
Procedure: Plates were washed and AFFIMER® polypeptides were detected using streptavidin-HRP for 30 min. After the last washing step, the TMB substrate was added for the development of the experiment and plates were read at 450 nm. The EC₅₀ was then calculated using the interpolated non-linear four-parameters standard curve.

[4] = target: T2, human PD-L1-Fc (R&D Systems); experiment: PD-L1/PD-1 competition ELISA (binding inhibition %): human PD-1-Fc coated, AFFIMER preincubated with huPD-L1-Fc at its EC80, bound PD-L1 detected; blocked ligand: human PD-1-Fc. The table column is headed 'EC50 (nM)'; the text calls the values IC50
Procedure: Plates were washed two times with washing buffer (PBS, Tween 20 0.1%) with a plate washer and saturated with Casein 5% (Sigma) in PBS for 90 minutes at room temperature (25±1° C.). […] Plates were washed 3 times as described previously. […] Plates were washed 3 times as described previously and Streptavidin-HRP was added, and the plates were incubated for 30 minutes at room temperature (25±1° C.). Plates were washed a last time and the substrate (TMB; Pierce Thermo-Scientific) was added to the plate. After 10 minutes, the reaction was stopped using an acidic solution and the plates were read at absorbance 450-630 nm. The IC₅₀ was then calculated using the interpolated non-linear four-parameters standard curve.

[5] = target: T2, human PD-L1-Fc (R&D Systems); experiment: huPD-L1-Fc binding ELISA
[6] = target: T2, human PD-L1-Fc (R&D Systems); experiment: human PD-L1-Fc binding ELISA: huPD-L1-Fc coated, anti-cystatin A detection
[7] = target: T2, human PD-L1-Fc (R&D Systems); experiment: SPR (Biacore 8K): human PD-L1-Fc amine-coupled on a CM5 chip, AFFIMER as analyte
[8] = target: T1, PD-L1 on cells (NCI-H441 cells; aAPC …); experiment: cell-based or functional assay; remark: listed apart in the source
[9] = target: T3, human serum albumin (HSA); experiment: SPR (Biacore): immobilized ligand HSA (Sigma # A3782), AFFIMER as analyte, pH 7.0 by the legend
Procedure: (§1) For the HSA binding kinetic analysis, HSA (Sigma #A37812) was immobilized on a CM5 chip surface using amine coupling in 10 mM sodium acetate (pH 5.0) (Cytvia). […] The chip surface was regenerated with 3 mM NaOH for 20 seconds at a flow rate of 20 μl/min. The kinetic data was blank subtracted and fit to a 1:1 Langmuir binding model (BIAcore evaluation software; Cytiva).

[10] = target: T4, murine serum albumin (MSA) (murine, UniProt P07724 25-608); experiment: SPR, Biacore, MSA amine-coupled on CM5; mammalian-produced format
T4 construct: Bought reagent

[11] = target: T3, human serum albumin (HSA); experiment: SPR, Biacore, HSA amine-coupled on CM5; mammalian-produced format
Procedure: as §1

[12] = target: T4, murine serum albumin (MSA); experiment: SPR (Biacore): immobilized ligand MSA (Sigma # A3559), AFFIMER as analyte, pH 7.0 by the legend
[13] = target: T3, human serum albumin (HSA); experiment: HSA binding ELISA: HSA coated, anti-cystatin A detection
[14] = target: T2, human PD-L1-Fc (R&D Systems); experiment: SPR (Biacore) kinetics: human PD-L1-Fc immobilised on a CM5 chip, AFFIMER as analyte
[15] = target: T2, human PD-L1-Fc (R&D Systems); experiment: SPR (Biacore) kinetics: human PD-L1-Fc immobilised on a CM5 chip, AFFIMER as analyte (column KD (pM), the same fit as the KD (M) column)
[16] = target: T3, human serum albumin (HSA); experiment: SPR, Biacore, HSA on CM5, pH 7.4; ILF XT format
Procedure: as §1
(§2) Protein was produced from Escherichia coli and characterized as described in Example 1. […] Kinetic analysis was carried out as described in Example 2.

[17] = target: T3, human serum albumin (HSA); experiment: SPR (Biacore) kinetics: HSA immobilised on a CM5 chip, AFFIMER as analyte, pH 7.4
Procedure: as §1, §2

[18] = target: T3, human serum albumin (HSA); experiment: SPR, Biacore, HSA on CM5, pH 7.4; HSA-18 monomer
Procedure: as §1, §2

T3 sequence (P02768 25-609): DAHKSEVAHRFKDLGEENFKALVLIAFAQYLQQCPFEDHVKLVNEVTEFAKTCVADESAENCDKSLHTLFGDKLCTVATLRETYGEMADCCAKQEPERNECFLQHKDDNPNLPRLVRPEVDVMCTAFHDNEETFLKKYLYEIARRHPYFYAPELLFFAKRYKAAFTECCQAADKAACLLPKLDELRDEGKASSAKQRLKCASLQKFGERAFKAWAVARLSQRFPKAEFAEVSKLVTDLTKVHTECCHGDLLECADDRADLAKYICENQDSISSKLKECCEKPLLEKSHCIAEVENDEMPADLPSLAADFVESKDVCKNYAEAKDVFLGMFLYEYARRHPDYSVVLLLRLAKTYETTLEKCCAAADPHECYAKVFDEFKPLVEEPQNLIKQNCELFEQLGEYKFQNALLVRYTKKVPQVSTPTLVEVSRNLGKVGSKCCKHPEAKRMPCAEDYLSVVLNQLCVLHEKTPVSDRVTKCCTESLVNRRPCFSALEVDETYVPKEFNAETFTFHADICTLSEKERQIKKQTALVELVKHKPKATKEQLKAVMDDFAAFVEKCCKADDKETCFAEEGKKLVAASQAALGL
T2 sequence (Q9NZQ7 19-239 limits assumed): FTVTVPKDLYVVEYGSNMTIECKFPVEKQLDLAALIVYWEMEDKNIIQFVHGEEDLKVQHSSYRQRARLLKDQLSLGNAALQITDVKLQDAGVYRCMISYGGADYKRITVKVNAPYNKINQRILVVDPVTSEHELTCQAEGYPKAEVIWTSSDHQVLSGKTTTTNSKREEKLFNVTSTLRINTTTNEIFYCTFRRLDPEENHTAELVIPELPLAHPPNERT
T1 sequence (Q9NZQ7 19-290): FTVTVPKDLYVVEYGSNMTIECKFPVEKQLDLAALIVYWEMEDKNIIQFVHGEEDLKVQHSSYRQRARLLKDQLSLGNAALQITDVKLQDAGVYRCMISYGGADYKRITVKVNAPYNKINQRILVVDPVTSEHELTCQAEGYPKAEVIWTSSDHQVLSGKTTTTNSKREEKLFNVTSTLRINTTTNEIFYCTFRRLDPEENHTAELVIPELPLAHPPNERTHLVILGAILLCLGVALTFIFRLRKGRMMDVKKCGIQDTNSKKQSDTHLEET

half-maximal concentration of PD-1/PD-L1 blockade (% of inhibition, NFAT-luciferase reporter cells; IC50) [1]: 27.9 nM
Kd [2]: 0.449 nM
binding result [3]: no binding
IC50 [4]: 1.63 nM
EC50 [5]: 0.2 nM
EC50 [6]: 0.21 nM
B1: Clone 80 (monomeric anti-PD-L1 AFFIMER® polypeptide) (designed binder)
chain: MIPGGLSEAKPATPEIQEIVDKVKPQLEEKTGETYGKLEAVQYKTQVVRRKHFPQWPGTNYYIKVRAGDNKYMHLKVFKSLDLQPREVFQEDLVLTGYQVDKNKDDELTGF
notes: Engineered Stefin A variant; also called anti-PD-L1 type I AFFIMER® polypeptide

Kd [7]: 0.0864 nM
koff [7]: 8.41e-05 s⁻¹
kon [7]: 974000 M⁻¹ s⁻¹
IC50 of PD-1/PD-L1 blockade (% of inhibition, Promega NFAT-luciferase reporter cells) [8]: 57.9 nM
koff [9]: 0.00641 s⁻¹
kon [9]: 412000 M⁻¹ s⁻¹
Kd [10]: 413 nM
Kd [11]: 15.5 nM
EC50 [6]: 0.02 nM
koff [12]: 0.0741 s⁻¹
kon [12]: 179000 M⁻¹ s⁻¹
EC50 [13]: 2.78 nM
B2: Clone 80 XT38 (mammalian-produced anti-PD-L1 AFFIMER® ILF dimer XT) (designed binder)
chain: MIPGGLSEAKPATPEIQEIVDKVKPQLEEKTGETYGKLEAVQYKTQVVRRKHFPQWPGTNYYIKVRAGDNKYMHLKVFKSLDLQPREVFQEDLVLTGYQVDKNKDDELTGFAEAAAKEAAAKEAAAKEAAAKEAAAKEAAAKMIPGGLSEAKPATPEIQEIVDKVKPQLEEKTGETYGKLEAVQYKTQVVRRKHFPQWPGTNYYIKVRAGDNKYMHLKVFKSLDLQPREVFQEDLVLTGYQVDKNKDDELTGFAEAAAKEAAAKEAAAKEAAAKEAAAKEAAAKMIPRGLSEAKPATPEIQEIVDKVKPQLEEKTNETYGKLEAVQYKTQVLANFFQRRWPGSTNYYIKVRAGDNKYMHLKVFNGPWKFRNTDRGADRVLTGYQVDKNKDDELTGF
notes: Same trimeric ILF format as Clone 80 XT35, expressed in HEK (Expi293F) cells

Kd [14]: 0.109 nM
koff [14]: 0.00015 s⁻¹
kon [14]: 1.37e+06 M⁻¹ s⁻¹
Kd [15]: 0.11 nM
Kd [16]: 7.04 nM
Kd [17]: 704 nM
koff [17]: 0.00828 s⁻¹
kon [17]: 11800 M⁻¹ s⁻¹
B3: Clone 80 XT62 (designed binder)
chain: MIPGGLSEAKPATPEIQEIVDKVKPQLEEKTGETYGKLEAVQYKTQVVRRKHFPQWPGTNYYIKVRAGDNKYMHLKVFKSLDLQPREVFQEDLVLTGYQVDKNKDDELTGFAEAAAKEAAAKEAAAKEAAAKEAAAKEAAAKMIPGGLSEAKPATPEIQEIVDKVKPQLEEKTGETYGKLEAVQYKTQVVRRKHFPQWPGTNYYIKVRAGDNKYMHLKVFKSLDLQPREVFQEDLVLTGYQVDKNKDDELTGFAEAAAKEAAAKEAAAKEAAAKEAAAKEAAAKMIPRGLSEAKPATPEIQEIVDKVKPQLEEKTNETYGKLEAVQYKTQVLADWWQAKWPHSTNYYIKVRAGDNKYMHLKVFNGPYKVHQSSGGADRVLTGYQVDKNKDDELTGF
notes: Clone 80 dimer with HSA-18 at the C-terminus; Made in E. coli; No tag is stated for this construct

Kd [18]: 1.09 nM
Kd [17]: 109 nM
koff [17]: 0.0078 s⁻¹
kon [17]: 71400 M⁻¹ s⁻¹
B4: HSA-18 (anti-serum albumin AFFIMER® polypeptide, XT monomer) (designed binder)
chain: MIPRGLSEAKPATPEIQEIVDKVKPQLEEKTNETYGKLEAVQYKTQVLADWWQAKWPHSTNYYIKVRAGDNKYMHLKVFNGPYKVHQSSGGADRVLTGYQVDKNKDDELTGF
notes: also called HSA-18 monomer
